Measured values reported in the PETadex activity labels (doi:10.1128/aem.01698-25).

B1: unnamed (protein)
chain: MPILNRFAHFQLILCFLISNLVLNAQTGSFVYGDALPDAPELSARGSYAVGVRTLDFVNKGQADVLNSKNGIDPIYDRPLKVEVWYPAQLAEGAKETVVYDEVMGTAHDSLRPLTPITFKGRASRDAAPLTTDGSFPLLVVAHGYVGSRYLMTYLTENLASKGYVVVAIDHTDSTFRDASPFASTLVNRAKDISFVLNQTVNLGKAADNNFLAGLVDSENIGIIGYSMGGYGVLNVAGAGYSDGLVGFFSGMTGGSKAIVDLAMSNPDFPKVDPRIKAVVAFAPWGMERGIWDAEGLKGLKVPTFFIAGSQDDISGYEKGIKAIYTGAVNADRYLLTYENARHNVAPNPPPAESFEPGLHIDEYYRYAEPSWDERKINNVNQHFITAFLGIHLKQKDYSKFLELQENSNEKDWTGFKARSSTGMELLHDKPAP
B2: unnamed (protein)
chain: MKFRALLFSASLIAILFNGLTINTVNAQTNDFLYGDQLPDAPELSSRGEYKVGVKTVNLVNPNQVDILNSKEGNDPTYDRPITIEVWYPANVGDDAKTVVYDEVMGTRGDSLRPLTPFTFKGRAYRDATPKTGNKFPLVVVSHGYVGSRYLMTYLTENLASKGYIVAAIDHTDSTFKDANAFQSTLLNRPKDIRFVINEMEKMGAKGSKNNLEGVVDANNTAIIGYSMGGYGVLNVGGAGYSAGLAQFFTGMTGGSTAISVHTAGNAAYEKMIDARIKAIVAFAPWGMERGVWDAEGLKGLKTPTFFIAGSQDDISGYEKGIKAIYEGAVNADRYLLTYMNARHNVAPNPPPAEALAPGLHIDEYYRYAEPSWDQRKMNNINQHFVTAFIGKHLKNQDSTKFLEVQEDSNEKDWTGFKPRSSTGMELLHAQPAN

Substrate: pNP-C8
Experiment: Proxy for plastic degradation [Absorbance @ 405nm]
Settings: 4 °C

How did the “Proxy for plastic degradation” value turn out when B1 was run?
The value was 95%.

Which “Proxy for plastic degradation” value does the source give for B2 here?
The value was 90%.

Same assay, conditions: 10 °C

For B1, which “Proxy for plastic degradation” value is on record?
Its value is 70%.

With B2 as the protein, how does the “Proxy for plastic degradation” value read?
The value was 90%.

Same assay, conditions: 20 °C

For B1, which “Proxy for plastic degradation” value is on record?
Its value is 90%.

For B2, which “Proxy for plastic degradation” value is on record?
The value was 90%.

Same assay, conditions: 30 °C

For B1, which “Proxy for plastic degradation” value is on record?
The value was 90%.

With B2 as the protein, how does the “Proxy for plastic degradation” value read?
Its value is 95%.

Same assay, conditions: 40 °C

With B1 as the protein, how does the “Proxy for plastic degradation” value read?
The value was 100%.

B2 was tested. Which “Proxy for plastic degradation” value did it give?
The value was 100%.

Same assay, conditions: 50 °C

B1 was tested. Which “Proxy for plastic degradation” value did it give?
The value was 90%.

B2 was tested. Which “Proxy for plastic degradation” value did it give?
Its value is 95%.

Same assay, conditions: 60 °C

B1 was tested. Which “Proxy for plastic degradation” value did it give?
The value was 10%.

For B2, which “Proxy for plastic degradation” value is on record?
Its value is 35%.

Same assay, conditions: 70 °C

How did the “Proxy for plastic degradation” value turn out when B1 was run?
Its value is 15%.

With B2 as the protein, how does the “Proxy for plastic degradation” value read?
Its value is 5%.

Same assay, conditions: 80 °C

B1 was tested. Which “Proxy for plastic degradation” value did it give?
Its value is 25%.

Which “Proxy for plastic degradation” value does the source give for B2 here?
Its value is 30%.

Same assay, conditions: 90 °C

For B1, which “Proxy for plastic degradation” value is on record?
The value was 20%.

How did the “Proxy for plastic degradation” value turn out when B2 was run?
Its value is 0%.

Same assay, conditions: pH 3

B1 was tested. Which “Proxy for plastic degradation” value did it give?
The value was 0%.

For B2, which “Proxy for plastic degradation” value is on record?
The value was 0%.

Same assay, conditions: pH 4

With B1 as the protein, how does the “Proxy for plastic degradation” value read?
Its value is 0%.

With B2 as the protein, how does the “Proxy for plastic degradation” value read?
Its value is 5%.

Same assay, conditions: pH 5

B1 was tested. Which “Proxy for plastic degradation” value did it give?
Its value is 0%.

With B2 as the protein, how does the “Proxy for plastic degradation” value read?
The value was 55%.

Same assay, conditions: pH 9

B1 was tested. Which “Proxy for plastic degradation” value did it give?
The value was 0%.

How did the “Proxy for plastic degradation” value turn out when B2 was run?
The value was 60%.

Same assay, conditions: pH 9.2

B1 was tested. Which “Proxy for plastic degradation” value did it give?
The value was 0%.

With B2 as the protein, how does the “Proxy for plastic degradation” value read?
Its value is 80%.

Same assay, conditions: pH 10.2

B1 was tested. Which “Proxy for plastic degradation” value did it give?
The value was 0%.

For B2, which “Proxy for plastic degradation” value is on record?
Its value is 55%.
